The values that follow come from patent publication US20030143644A1.

The target in test [1] is cytoskeleton. Put plainly: cell-based or functional assay.
The target of test [2] is cytoskeleton. Description: immunoblot densitometry of the detergent insoluble pellet, resting cells.
Test [3] deals with cytoskeleton. Description: immunoblot densitometry of the pellet after anti-αβTCR plus GAM ligation, thymocytes. (In general: A western blot detects proteins with antibodies after separation by electrophoresis.)
In test [4] the target is cytoskeleton. Put plainly: immunoblot densitometry of the detergent insoluble pellet, TCR ligated against non-ligated.
Test [5] has as its target cytoskeleton. Description: immunoblot densitometry of the pellet after anti-αβTCR plus GAM ligation, lymph node T cells.

Chain of TCR-ζ (P24161 22-164 limits assumed): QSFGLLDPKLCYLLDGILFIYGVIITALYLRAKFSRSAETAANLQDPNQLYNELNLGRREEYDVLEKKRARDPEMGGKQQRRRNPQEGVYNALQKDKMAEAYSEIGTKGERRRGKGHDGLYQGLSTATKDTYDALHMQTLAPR

Turning to “CD8/ζD67-126 (from UniProt P01731 28-217; P24161 52-164) (receptor)”, in the test with cytoskeleton [1], the IL-2 production (fold less IL-2 than wild-type CD8/ζ) is 40.
Still for that read-out and setting: then “CD8/ζY153E (from UniProt P01731 28-217; P24161 52-164) (receptor)”, with 100.
For “TCR-ζ (from UniProt P24161 22-164) (receptor)”, in the test with cytoskeleton [2], the percent of TCR-ζ in the detergent insoluble pellet (resting thymocytes and lymph node T cells) came to 7%. Also, the percent of TCR-ζ in the detergent insoluble pellet (activated thymocytes) with cytoskeleton [3] worked out at 16%. Also, in the test with cytoskeleton [4], the fold increase in the pellet against non-ligated samples (lymph node T cells) stood at 6 fold and the fold increase in the pellet against non-ligated samples (thymocytes) turned out to be 2 fold. Further, in the test with cytoskeleton [5], the percent of TCR-ζ in the detergent insoluble pellet (activated lymph node T cells) is 43%.
